# Experimental data taken from patent publication US20070099247A1.
# Target: Streptavidin (UniProt P22629)
# Test: flow cytometry of YFP fluorescence on streptavidin coated beads after adding 1 uM biotin
# Chain of Streptavidin (P22629 37-163 limits assumed): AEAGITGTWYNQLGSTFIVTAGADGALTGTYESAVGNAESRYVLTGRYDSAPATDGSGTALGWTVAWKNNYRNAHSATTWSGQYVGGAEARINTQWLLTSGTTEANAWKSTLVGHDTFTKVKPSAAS
substance,measurement,value
Yellow fluorescent protein with streptavidin binding peptide SA-1 inserted after Y145,koff,0.02 s⁻¹
